In US9255270B2, “Methods used in sensitizing invasive glioblastoma to therapeutic treatment” (Translational Genomics Research Institute, priority 2009, dated 2016):

Legend:
[1] = system: BAD (Ser 136) phosphorylation; assay: PhosphoBAD (Ser 136) sandwich ELISA; set-up: species or system Human; conditions: cell-based ELISA; glioma cells
Method: Phosphorylation levels of BAD (Ser 136) were determined using a cell-based ELISA. Glioma cells were transfected with siRNA oligonucleotides against AKT1, AKT2, or non-mammalian GL2 luciferase control siRNA and incubated overnight. The cells were cultured overnight in DMEM with 0.5% FBS prior to TWEAK or control PBS addition in DMEM with 0.1% BSA for 15 min. Total cellular lysates were collected according to manufacturer's instructions utilizing the PathScan Sandwich ELISA kit (Cell Signaling). Each sample (100 μg total protein) was diluted 1:1 in sample buffer for a final volume of 200 μL prior to addition to the designated microstrip wells previously coated by the manufacturer with a BAD rabbit monoclonal capture antibody. The microstrips were then sealed and incubated overnight at 4° C. on a plate shaker. […] Stop solution was omitted and absorbance read at 600 nm (See Reference 29).
(§1) In FIGS. 18 and 19, TWEAK-induced BAD phosphorylation on serine 136 is dependent upon Akt2 function. […] Cellular lysates were collected and analyzed for phosphorylated BAD Ser-136 and total BAD by ELISA. […] After 72 hours protein lysates were collected and analyzed by Western blotting for BAD and α-tubulin. […] Cells with condensed, fragmented chromatin were manually scored as apoptotic cells. At least 10 fields (total of 1000 cells) were evaluated and data reported as apoptotic cells/total cells×100. […]

[2] = system: Akt-Ser473 phosphorylation; assay: Western blot of Akt-Ser473 phosphorylation in TWEAK-treated glioma cells; format: cell-based, Human
Method: (§2) Human astrocytoma cell lines T98G, U87, U118, SNB19 (American Type Culture Collection) and SF767 (University of California at San Francisco) were maintained in Dulbecco's modified Eagle's medium (DMEM)+10% heat inactivated fetal bovine serum (FBS) in a 37° C., 5% CO2 atmosphere. In all assays treated with TWEAK, cells were cultured in reduced serum (0.5% FBS) for 16 h prior to stimulation with recombinant TWEAK at 100 ng/ml in DMEM+0.1% BSA for the indicated times.
(§3) Immunoblotting and protein determination experiments were performed as described previously (See Reference 11). In some experiments, TWEAK (100 ng/ml) was preincubated with 2.5 μg/ml soluble Fn14-Fc decoy receptor or control Fc protein at 37° C. for 15 min before adding it to cells (See Reference 26). Also, in some cases, cells were pretreated with the PI3K inhibitor LY294002 (10 μM) for 10 min prior to TWEAK addition. For immunoprecipitation, cells were lysed on ice for 10 min in a buffer containing 10 mM Tris-HCl, pH 7.4, 0.5% Nonidet P-40, 150 mM NaCl, 1 mM phenylmethylsulfonyl fluoride, 1 mM EDTA, 2 mM sodium vanadate, 10 μg/ml aprotinin, and 10 μg/ml leupeptin (Sigma). […] Samples were then resuspended in 2×SDS sample buffer and boiled in the presence of 2-mercaptoethanol (Sigma), separated by SDS-PAGE, transferred to nitrocellulose for 1 h at 4° C., and proteins were detected as described previously (See Reference 27). […]
Referring now to FIG. 1, T98G and SF767 glioma cells were treated with TWEAK and then harvested at the indicated times. Protein lysates were analyzed by Western blotting using antibodies to Akt Ser-473, total Akt, and α-tubulin. […] Total cell lysates were collected after 10 min of TWEAK treatment and analyzed for phosphorylated Akt-473, total Akt, and α-tubulin. […] Cells were treated with TWEAK for 10 minutes and protein lysates were analyzed for phosphorylated Akt-473, total Akt, Rac1 and α-tubulin. […]

[3] = system: Akt2; assay: Immunoprecipitation with isoform-specific antibody, immunoblot for phospho Akt-473; format: cell-based, Human; conditions: T98G cells; TWEAK 10 min
Method: as §3
(§4) The protein expression of Akt1 and Akt2 across five different glioma cell lines was assessed. […]
(§5) Akt1 and Akt2 are expressed in glioma cell lines and are phosphorylated in TWEAK stimulated cells. Referring now to FIG. 10: T98G, SNB19, SF767, U87, and U118 cell lysates were analyzed for endogenous levels of Akt1 and Akt2 by Western blotting. To monitor gel loading, α-tubulin protein levels were also analyzed. […]

[4] = system: Akt1; assay: as above; format: cell-based, Human; conditions: T98G cells; TWEAK 10 min
Method: as §3, §4, §5

[5] = system: T98G and SF767 glioma cells; assay: Apoptotic assay (nuclear morphology of DAPI stained cells); format: cell-based, Human
Method: as §2
Apoptotic cells were evaluated by nuclear morphology of DAPI stained cells as described previously (See Reference 11). Briefly, cells with condensed, fragmented chromatin were manually scored as apoptotic cells. At least five fields (total of 1000 cells) were evaluated, and data reported as apoptotic cells/total cells×100. Verification of apoptotic cells was conducted by co-immunofluorescence staining using a monoclonal antibody against activated cleaved caspase 3. At least 1000 cells per treatment were evaluated for condensed chromatin and activated caspase 3 (See Reference 11).
TWEAK stimulation of glioma cell survival depends on Akt2 function. SiRNA specific for Akt1 (FIG. 12) and Akt2 (FIG. 13) suppress expression of Akt1 and Ak2 protein in both. T98G and SF767 glioma cells. […] After 72 hours, protein lysates were collected and analyzed by Western blotting for Akt1, Akt2 and α-tubulin. […] Cells with condensed, fragmented chromatin were manually scored as apoptotic cells. At least 10 fields (total of 1000 cells) were evaluated and data reported as apoptotic cells/total cells×100. […]
as §1

B1: TWEAK: recombinant TWEAK, TNF superfamily ligand of the Fn14 receptor, used at 100 ng/ml (protein)
chain: SAPKGRKTRARRAIAAHYEVHPRPGQDGAQAGVDGTVSGWEEARINSSSPLRYNRQIGEFIVTRAGLYYLYCQVHFDEGKAVYLKLDLLVDGVLALRCLEEFSATAASSLGPQLRLCQVSGLLALRPGSSLRIRTLPWAHLKAAPFLTYFGLFQVH
[1]
  amount of phosphorylated BAD-Ser136 upon TWEAK stimulation: increased approximately two-fold
  amount of total BAD upon TWEAK stimulation: did not change significantly
[2]; TWEAK 100 ng/ml, T98G and SF767 glioma cells
  Akt-Ser473 phosphorylation after TWEAK treatment (immunoblot of whole cellular lysates): induction of Akt-Ser473 phosphorylation
[2]; TWEAK treatment, T98G and SF767
  duration of TWEAK treatment after which Akt-Ser473 phosphorylation diminished: more than 1 hour
[2]; TWEAK treatment, both T98G and SF767 cell lines
  time after which phosphorylation of Akt-Ser473 was detected: 5 min
[3]
  induction of phosphorylation of Akt2 following TWEAK treatment: two-fold induction
[4]
  induction of phosphorylation of Akt1 following TWEAK treatment: two-fold induction
[5]; BAD siRNA transfected glioma cells
  effect of TWEAK pretreatment on apoptosis by cytotoxic or chemotherapeutic agents in cells with BAD expression suppressed: still protected glioma cells from apoptosis
[5]; TWEAK 100 ng/ml 2 hours before TMZ 200 μM
  effect of TWEAK pretreatment on TMZ induced cell death: suppressed TMZ induced cell death
[5]; TWEAK 100 ng/ml 2 hours before TRAIL or camptothecin, control siRNA cells
  effect of TWEAK pretreatment on cytotoxic therapy-induced apoptosis: abrogated cytotoxic therapy-induced apoptosis
